± gives the standard deviation of the averaged measurements.
Experiment: total protein half-life in vivo (active degradation + dilution); higher = more stable protein
[1] = E. coli NCM3722 delta-smpB, growth: N-lim chemostat, doubling time 6 h
[2] = wild type E. coli NCM3722, growth: C-lim chemostat, doubling time 3 h
[3] = wild type E. coli NCM3722, growth: C-lim chemostat, doubling time 6 h
[4] = wild type E. coli NCM3722, growth: C-lim chemostat, doubling time 12 h
[5] = wild type E. coli NCM3722, growth: P-lim chemostat, doubling time 6 h
[6] = wild type E. coli NCM3722, growth: P-lim chemostat, doubling time 12 h
[7] = E. coli NCM3722 delta-clpP delta-lon delta-hslV, growth: N-lim chemostat, doubling time 6 h
[8] = wild type E. coli NCM3722, growth: N-lim chemostat, doubling time 12 h
[9] = E. coli NCM3722 delta-hslV, growth: N-lim chemostat, doubling time 6 h
[10] = wild type E. coli NCM3722, growth: N-lim chemostat, doubling time 6 h
[11] = E. coli NCM3722 delta-clpP, growth: N-lim chemostat, doubling time 6 h
[12] = E. coli NCM3722 delta-lon, growth: N-lim chemostat, doubling time 6 h

Row | Sequence | total protein half-life in vivo [1] | total protein half-life in vivo [2] | total protein half-life in vivo [3] | total protein half-life in vivo [4] | total protein half-life in vivo [5] | total protein half-life in vivo [6] | total protein half-life in vivo [7] | total protein half-life in vivo [8] | total protein half-life in vivo [9] | total protein half-life in vivo [10] | total protein half-life in vivo [11] | total protein half-life in vivo [12]
1 | MSKSNPSEVKLAVPTSGGFSGLKSLNLQVFVMIAAIIAIMLFFTWTTDGAYLSARNVSNLLRQTAITGILAVGMVFVIISAEIDLSVGSMMGLLGGVAAICDVWLGWPLPLTIIVTLVLGLLLGAWNGWWVAYRKVPSFIVTLAGMLAFRGILIGITNGTTVSPTSAAMSQIGQSYLPASTGFIIGALGLMAFVGWQWRGRMRRQALGLQSPASTAVVGRQALTAIIVLGAIWLLNDYRGVPTPVLLLTLLLLGGMFMATRTAFGRRIYAIGGNLEAARLSGINVERTKLAVFAINGLMVAIAGLILSSRLGAGSPSAGNIAELDAIAACVIGGTSLAGGVGSVAGAVMGAFIMASLDNGMSMMDVPTFWQYIVKGAILLLAVWMDSATKRRS [P0AGI4] | 4.37 ± 0.55 h | 3.44 ± 0.11 h | 5.06 ± 1.1 h | 9.1 ± 0.54 h | 4.71 ± 0.42 h | 8.47 h | – | – | – | – | – | –
2 | MELATTQSVLMQIQPTIQRFARMLASVLQLEVEIVDENLCRVAGTGAYGKFLGRQLSGNSRLLRHVLETKTEKVVTQSRFDPLCEGCDSKENCREKAFLGTPVILQDRCVGVISLIAVTHEQQEHISDNLREFSDYVRHISTIFVSKLLEDQGPGDNISKIFATMIDNMDQGVLVVDDENRVQFVNQTALKTLGVVQNNIIGKPIRFRPLTFESNFTHGHMQHIVSWDDKSELIIGQLHNIQGRQLFLMAFHQSHTSFSVANAPDEPHIEQLVGECRVMRQLKRLISRIAPSPSSVMVVGESGTGKEVVARAIHKLSGRRNKPFIAINCAAIPEQLLESELFGYVKGAFTGASANGKTGLIQAANTGTLFLDEIGDMPLMLQAKLLRAIEAREILPIGASSPIQVDIRIISATNQNLAQFIAEGKFREDLFYRLNVIPITLPPLRERQEDIELLVHYFLHLHTRRLGSVYPGIAPDVVEILRKHRWPGNLRELSNLMEYLVNVVPSGEVIDSTLLPPNLLNNGTTEQSDVTEVSEAHLSLDDAGGTALEEMEKQMIREALSRHNSKKQVADELGIGIATLYRKIKKYELLNT | – | 1.46 ± 0.072 h | 2.41 ± 0.17 h | 2.87 ± 0.29 h | – | 2.56 h | 4.91 ± 0.062 h | 1.52 h | – | – | – | –
3 | MTFWSILRQRCWGLVLVVAGVCVITFIISHLIPGDPARLLAGDRASDAIVENIRQQLGLDQPLYVQFYRYVSDLFHGDLGTSIRTGRPVLEELRIFFPATLELAFGALLLALLIGIPLGILSAVWRNRWLDHLVRIMAITGISTPAFWLGLGVIVLFYGHLQILPGGGRLDDWLDPPTHVTGFYLLDALLEGNGEVFFNALQHLILPALTLAFVHLGIVARQIRSAMLEQLSEDYIRTARASGLPGWYIVLCYALPNALIPSITVLGLALGDLLYGAVLTETVFAWPGMGAWVVTSIQALDFPAVMGFAVVVSFAYVLVNLVVDLLYLWIDPRIGRGGGE | – | – | – | – | – | – | > 8 h | 7.28 h | 5.53 h | 5.15 h | – | –
4 | MSSDIKIKVQSFGRFLSNMVMPNIGAFIAWGIITALFIPTGWLPNETLAKLVGPMITYLLPLLIGYTGGKLVGGERGGVVGAITTMGVIVGADMPMFLGSMIAGPLGGWCIKHFDRWVDGKIKSGFEMLVNNFSAGIIGMILAILAFLGIGPIVEALSKMLAAGVNFMVVHDMLPLASIFVEPAKILFLNNAINHGIFSPLGIQQSHELGKSIFFLIEANPGPGMGVLLAYMFFGRGSAKQSAGGAAIIHFLGGIHEIYFPYVLMNPRLILAVILGGMTGVFTLTILGGGLVSPASPGSILAVLAMTPKGAYFANIAGVCAAMAVSFVVSAILLKTSKVKEEDDIEAATRRMQDMKAESKGASPLSAGDVTNDLSHVRKIIVACDAGMGSSAMGAGVLRKKIQDAGLSQISVTNSAINNLPPDVDLVITHRDLTERAMRQVPQAQHISLTNFLDSGLYTSLTERLVAAQRHTANEEKVKDSLKDSFDDSSANLFKLGAENIFLGRKAATKEEAIRFAGEQLVKGGYVEPEYVQAMLDREKLTPTYLGESIAVPHGTVEAKDRVLKTGVVFCQYPEGVRFGEEEDDIARLVIGIAARNNEHIQVITSLTNALDDESVIERLAHTTSVDEVLELLAGRK | 6.64 ± 0.41 h | 3.35 ± 0.32 h | 6.92 ± 0.54 h | 12.66 ± 0.082 h | 6.275 ± 0.059 h | 13.8 ± 1.2 h | 6.55 ± 0.42 h | – | 6.25 ± 0.23 h | 6.4 ± 0.15 h | 6.42 ± 0.66 h | –
5 | MSAIDCIITAAGLSSRMGQWKMMLPWEQGTILDTSIKNALQFCSRIILVTGYRGNELHERYANQSNITIIHNPDYAQGLLTSVKAAVPAVQTEHCFLTHGDMPTLTIDIFRKIWSLRNDGAILPLHNGIPGHPILVSKPCLMQAIQRPNVTNMRQALLMGDHYSVEIENAEIILDIDTPDDFITAKERYTEI | 1.3 h | – | 2.39 ± 0.048 h | 3.15 ± 0.1 h | – | – | 4.34 h | – | – | – | 3 ± 0.059 h | –
6 | MIRTMLQGKLHRVKVTHADLHYEGSCAIDQDFLDAAGILENEAIDIWNVTNGKRFSTYAIAAERGSRIISVNGAAAHCASVGDIVIIASFVTMPDEEARTWRPNVAYFEGDNEMKRTAKAIPVQVA [P0A790] | 1.43 h | 1.68 ± 0.15 h | 3.1 h | – | 2.12 h | 4.54 ± 0.65 h | 4.79 h | 2.2 h | 1.54 ± 0.23 h | 2.24 h | – | 6.3 h
7 | MQKVKLPLTLDPVRTAQKRLDYQGIYTPDQVERVAESVVSVDSDVECSMSFAIDNQRLAVLNGDAKVTVTLECQRCGKPFTHQVYTTYCFSPVRSDEQAEALPEAYEPIEVNEFGEIDLLAMVEDEIILALPVVPVHDSEHCEVSEADMVFGELPEEAQKPNPFAVLASLKRK [P0AB28] | 3.21 ± 0.78 h | 1.93 ± 0.19 h | 4.48 ± 0.12 h | 7.12 ± 0.54 h | 4.32 ± 0.3 h | 8.64 ± 0.14 h | 5.71 ± 1.6 h | 5.22 ± 0.26 h | 3.49 ± 0.1 h | 3.66 ± 0.32 h | 5.08 ± 1.3 h | 3.58 ± 0.24 h
8 | MNRTILVPIDISDSELTQRVISHVEEEAKIDDAEVHFLTVIPSLPYYASLGLAYSAELPAMDDLKAEAKSQLEEIIKKFKLPTDRVHVHVEEGSPKDRILELAKKIPAHMIIIASHRPDITTYLLGSNAAAVVRHAECSVLVVR | 4.47 ± 0.24 h | 3.61 ± 0.042 h | 5.75 ± 0.62 h | 10.3 ± 1.1 h | 5.521 ± 0.026 h | 9.62 ± 1 h | 5.69 ± 1.3 h | 7.83 ± 0.48 h | 6.17 ± 2.1 h | 4.7255 ± 0.0038 h | 4.76 ± 0.38 h | 3.98 ± 0.51 h
9 | MERYESLFAQLKERKEGAFVPFVTLGDPGIEQSLKIIDTLIEAGADALELGIPFSDPLADGPTIQNATLRAFAAGVTPAQCFEMLALIRQKHPTIPIGLLMYANLVFNKGIDEFYAQCEKVGVDSVLVADVPVEESAPFRQAALRHNVAPIFICPPNADDDLLRQIASYGRGYTYLLSRAGVTGAENRAALPLNHLVAKLKEYNAAPPLQGFGISAPDQVKAAIDAGAAGAISGSAIVKIIEQHINEPEKMLAALKVFVQPMKAATRS [P0A877] | 3.69 ± 0.17 h | 3.084 ± 0.021 h | 5.81 ± 0.23 h | 8.972 ± 0.077 h | 5.39 ± 0.16 h | 12 ± 0.5 h | 3.93 ± 0.57 h | 5.06 ± 0.87 h | 3.44 ± 0.066 h | 3.61 ± 0.21 h | 3.89 ± 0.84 h | 4.07 ± 0.48 h

Source: the supplement of paper PMC11246515
